# In article PMC4070425:
# Key:
# [1] = biological target: LAI Env E647G (variant virus) (HIV-1 strain LAI)
# [2] = biological target: LAI Env N637A (variant virus) (HIV-1 strain LAI)
# [3] = biological target: JR-FL Env N637A (variant pseudovirus) (HIV-1 isolate JR-FL)
# [4] = biological target: LAI Env N637K (variant virus) (HIV-1 strain LAI)
# [5] = biological target: LAI Env N611D (variant virus) (HIV-1 strain LAI)
# [6] = biological target: JR-CSF Env N637A (variant pseudovirus) (HIV-1 isolate JR-CSF)
# [7] = biological target: JR-CSF Env N611A (variant pseudovirus) (HIV-1 isolate JR-CSF)
# [8] = biological target: JR-CSF Env E647A (variant pseudovirus) (HIV-1 isolate JR-CSF)
# [9] = biological target: LAI Env A501T (variant virus) (HIV-1 strain LAI)
# [10] = biological target: JR-FL Env N611A (variant pseudovirus) (HIV-1 isolate JR-FL)
# [11] = biological target: JR-CSF Env wild type (pseudovirus) (HIV-1 isolate JR-CSF) (UniProt P20871)
# [12] = biological target: JR-CSF Env T639A (variant pseudovirus) (HIV-1 isolate JR-CSF)
# [13] = biological target: JR-FL Env E647A (variant pseudovirus) (HIV-1 isolate JR-FL)
# [14] = biological target: JR-CSF Env N637K (variant pseudovirus) (HIV-1 isolate JR-CSF)
# [15] = biological target: JR-CSF Env S613A (variant pseudovirus) (HIV-1 isolate JR-CSF)
# [16] = biological target: LAI Env wild type (virus) (HIV-1 strain LAI) (UniProt P03377)
# [17] = biological target: JR-FL Env E647G (variant pseudovirus) (HIV-1 isolate JR-FL)
# [18] = biological target: JR-CSF Env N611D (variant pseudovirus) (HIV-1 isolate JR-CSF)
# [19] = biological target: LAI Env E647A (variant virus) (HIV-1 strain LAI)
# [20] = biological target: JR-FL Env N637K (variant pseudovirus) (HIV-1 isolate JR-FL)
# [21] = biological target: JR-CSF Env E647G (variant pseudovirus) (HIV-1 isolate JR-CSF)
# [22] = biological target: LAI Env N611A (variant virus) (HIV-1 strain LAI)
# [23] = biological target: JR-FL Env N611D (variant pseudovirus) (HIV-1 isolate JR-FL)
# UniProt P20871, sequence (P20871 32-848): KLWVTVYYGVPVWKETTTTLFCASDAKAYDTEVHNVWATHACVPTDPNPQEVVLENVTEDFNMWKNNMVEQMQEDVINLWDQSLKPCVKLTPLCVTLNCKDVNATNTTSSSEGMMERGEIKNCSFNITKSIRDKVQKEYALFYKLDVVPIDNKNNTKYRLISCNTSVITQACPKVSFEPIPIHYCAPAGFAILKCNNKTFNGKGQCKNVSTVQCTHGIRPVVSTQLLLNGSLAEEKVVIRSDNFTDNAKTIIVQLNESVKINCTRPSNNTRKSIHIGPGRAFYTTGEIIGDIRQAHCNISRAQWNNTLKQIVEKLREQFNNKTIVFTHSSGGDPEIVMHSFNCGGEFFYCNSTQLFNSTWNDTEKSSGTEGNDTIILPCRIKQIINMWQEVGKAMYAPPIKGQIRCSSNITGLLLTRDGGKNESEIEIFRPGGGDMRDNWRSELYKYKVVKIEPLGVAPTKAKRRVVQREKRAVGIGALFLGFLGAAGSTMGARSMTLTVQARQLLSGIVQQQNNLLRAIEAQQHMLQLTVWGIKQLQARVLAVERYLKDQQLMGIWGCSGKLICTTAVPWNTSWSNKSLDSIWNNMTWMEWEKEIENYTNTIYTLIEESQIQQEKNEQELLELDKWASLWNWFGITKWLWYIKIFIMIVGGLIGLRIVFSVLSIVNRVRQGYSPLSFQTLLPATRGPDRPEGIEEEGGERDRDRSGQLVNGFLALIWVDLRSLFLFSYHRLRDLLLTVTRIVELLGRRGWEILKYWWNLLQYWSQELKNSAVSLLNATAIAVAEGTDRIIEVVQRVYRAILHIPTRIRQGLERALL
substance,measurement,setting,value
PGT151 (antibody),%Maximum neutralization (LAI),[1],95%
same,%Maximum neutralization (LAI),[2],70%
same,%Maximum neutralization (JR-FL),[3],65%
same,%Maximum neutralization (LAI),[4],37%
same,%Maximum neutralization (LAI),[5],45%
same,%Maximum neutralization (JR-CSF),[6],50%
same,%Maximum neutralization (JR-CSF),[7],44%
same,%Maximum neutralization (JR-CSF),[8],33%
same,%Maximum neutralization (LAI),[9],75%
same,%Maximum neutralization (JR-FL),[10],31%
same,%Maximum neutralization (JR-CSF),[11],93%
same,%Maximum neutralization (JR-CSF),[12],52%
same,%Maximum neutralization (JR-FL),[13],72%
same,%Maximum neutralization (JR-CSF),[14],20%
same,%Maximum neutralization (JR-CSF),[15],41%
same,%Maximum neutralization (LAI),[16],100%
same,%Maximum neutralization (JR-FL),[17],94%
same,%Maximum neutralization (JR-CSF),[18],0%
same,%Maximum neutralization (LAI),[19],96%
same,%Maximum neutralization (JR-FL),[20],33%
same,%Maximum neutralization (JR-CSF),[21],7%
same,%Maximum neutralization (LAI),[22],81%
same,%Maximum neutralization (JR-FL),[23],8%
